Laboratory results from paper PMC10179534, “Maize Transcription Factor ZmHsf28 Positively Regulates Plant Drought Tolerance”.

B1: pZmRD21 HSE probe (dsDNA)
DNA 1: TATCGGTTTTTTTAGAAGATATTATGGC
DNA 2: GCCATAATATCTTCTAAAAAAACCGATA
B2: pZmAOS1 HSE probe (dsDNA)
DNA 1: GTCAAGTCGGGTCTAGAAACTCATAGGCA
DNA 2: TGCCTATGAGTTTCTAGACCCGACTTGAC
B3: pZmAAO4 HSE probe (dsDNA)
DNA 1: TCTTAATCTCCTAGAAAAATACGGT
DNA 2: ACCGTATTTTTCTAGGAGATTAAGA
B4: pZmZEP1 HSE probe (dsDNA)
DNA 1: GGGTGTTTTTCTGGAATCATGCA
DNA 2: TGCATGATTCCAGAAAAACACCC
B5: pZmCAT1 HSE probe (dsDNA)
DNA 1: GAAGATGAGCTTCTAGGACTGTTAGA
DNA 2: TCTAACAGTCCTAGAAGCTCATCTTC

Molecular target: ZmHsf28 (Zea mays, UniProt K7V9Y4 1-267)
Assay: EMSA; Chemiluminescence EMSA kit (Beyotime); buffer, salt, pH and temperature not stated; unlabeled probes as competitors
Settings: protein: recombinant; tags: His (pET28a, Ni-NTA); chain copies: 3; blunt

Chain of ZmHsf28 (K7V9Y4 entry or part of it): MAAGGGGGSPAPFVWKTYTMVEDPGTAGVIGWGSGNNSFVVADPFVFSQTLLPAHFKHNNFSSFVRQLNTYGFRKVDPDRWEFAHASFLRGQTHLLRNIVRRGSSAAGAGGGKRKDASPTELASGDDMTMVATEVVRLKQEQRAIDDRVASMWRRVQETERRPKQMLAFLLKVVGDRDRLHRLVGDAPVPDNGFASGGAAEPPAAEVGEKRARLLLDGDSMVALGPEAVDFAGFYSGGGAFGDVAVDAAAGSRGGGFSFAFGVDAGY

Binder	binding result
B1	binds
B2	binds
B3	binds
B4	binds
B5	binds
